Source: patent US20260035464A1 (STAIDSON BIOPHARMA, published 2026)

How the values were obtained:
[1] = target: T1, extracellular domain of human BTLA with FAS, expressed on Jurkat cells (human, UniProt Q7Z6A9 31-157; P25445 174-335, limits assumed); assay: cell-based or functional assay
T1 sequence (looked up): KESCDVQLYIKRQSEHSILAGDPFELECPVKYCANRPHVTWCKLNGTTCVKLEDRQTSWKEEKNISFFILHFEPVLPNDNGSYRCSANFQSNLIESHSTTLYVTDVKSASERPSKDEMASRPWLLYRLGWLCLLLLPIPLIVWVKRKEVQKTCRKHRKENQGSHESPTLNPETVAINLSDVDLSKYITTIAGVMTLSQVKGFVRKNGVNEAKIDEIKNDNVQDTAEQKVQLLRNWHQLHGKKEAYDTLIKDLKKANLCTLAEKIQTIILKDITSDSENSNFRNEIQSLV

[2] = target: T2, rhesus monkey BTLA extracellular domain protein with His tag (Sino Biological, cat #90250-C08H) (rhesus monkey, UniProt G7MKA9 31-157); assay: ELISA, plate coated with rhesus monkey BTLA, detection with goat anti-human IgG Fc-AP, OD405
T2 construct: extracellular domain; Bought protein; also called His-tag-rhesus monkey BTLA; not shown: His tag
T2 sequence: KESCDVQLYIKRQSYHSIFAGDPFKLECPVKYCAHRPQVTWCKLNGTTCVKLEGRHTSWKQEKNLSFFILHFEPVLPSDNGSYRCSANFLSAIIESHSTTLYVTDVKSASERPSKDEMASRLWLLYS
Description: BTLA binding of purified recombinant chimeric antibodies by ELISA: The huBTLA and rhesus monkey BTLA antigen binding ELISA was performed on the purified recombinant chimeric antibodies. Briefly, 384-well, clear flat bottom high binding plates (Corning, cat #3700) were coated overnight at 4° C. with 0.333 μg/mL of huBTLA or rhesus monkey BTLA in PBS. The following purified process was performed as described in ELISA binding assay in Example 2, except that the secondary antibody was goat anti human IgG Fc-AP (Southern Biotech, cat #2014-04).

[3] = target: T3, human BTLA (Uniprot Q7Z6A9) expressed on cells (human, UniProt Q7Z6A9 31-289); assay: flow cytometry on Expi293 cells stably overexpressing huBTLA, PE anti-human Fc
T3 construct: whole, on cells; also called huBTLA-overexpressing Expi293 cells
Description: To examine the binding of the chimeric anti-BTLA antibodies to huBTLA overexpressing cells, Expi293 cells stably overexpressing huBTLA were used to perform FACS analysis. Briefly, the coding sequence of huBTLA (Uniprot, Q7Z6A9) was cloned into a lentiviral vector and the recombinant virus was packaged according to the instruction of the virus packaging kit (Lenti-X™ Packaging Single Shots, Cat #631275, Takada). The Expi293 cells were transduced with the recombinant virus.
Expi293 cells stably overexpressing huBTLA were incubated with the chimeric anti-BTLA antibodies 83F2 or 86B7 in PBS containing 0.5% BSA, 1 mM EDTA, and 0.1% sodium azide (FACS buffer) for 30 minutes at 4° C. The cells were washed, and then incubated with 10 nM phycoerythrin (PE) conjugated anti-Human Fc Ab (BioLegend, cat #409304) for 20 minutes at 4° C. Cells were washed and then analyzed by flow cytometry with Attune (ThermoFisher Scientific). Data were analyzed with FlowJo software. Antibody binding is represented as median fluorescence intensity (MFI).

[4] = target: T3, human BTLA (Uniprot Q7Z6A9) expressed …; assay: flow cytometry blocking assay on huBTLA-overexpressing Expi293 cells, antibody titrated, soluble human HVEM-mouse IgG2a Fc detected
Description: (§1) Expi293 cells stably overexpressing huBTLA were incubated with chimeric anti-BTLA antibody 83F2 or 86B7 for 30 minutes at 4° C. The cells were washed, and then incubated with human HVEM-mouse IgG2a Fc recombinant protein (Acro Biosystems, cat #HVM-H5255) at […] concentration for 20 minutes at 4° C. The human HVEM bindings were detected by goat anti-mouse Alexa 488 secondary antibody (ThermoFisher, cat #A-11029). Cells were washed and acquired by flow cytometry with Attune. Data were analyzed with FlowJo software. BTLA binding is represented as MFI.
FACS based blocking assays of humanized anti-BTLA antibodies were performed as described above in Example 3.

[5] = target: T3, human BTLA (Uniprot Q7Z6A9) expressed …; assay: flow cytometry blocking on huBTLA-overexpressing Expi293 cells; competitor human HVEM-mouse IgG2a Fc
Description: as §1

[6] = target: T3, human BTLA (Uniprot Q7Z6A9) expressed …; assay: cell-based or functional assay

B1: chimeric anti-BTLA antibody 86B7 (antibody, V domains shown)
VH: QVTLKESGPGILQPSQTLSLTCSFSGFSLSTFGMGVSWIRQPSGKGLEWLAHIYWDDDKRFNPSLKSRLSISKDTSNNQVFLKITTVDTADTATYYCARGNWDGETYFDYWGQGTTLTVSS
VL: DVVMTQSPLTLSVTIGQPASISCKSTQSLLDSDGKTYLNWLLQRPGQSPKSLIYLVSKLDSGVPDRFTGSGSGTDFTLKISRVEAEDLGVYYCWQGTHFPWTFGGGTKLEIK
- EC50 of inhibition of huHVEM-Fc-induced apoptosis, Jurkat-huBTLA-FAS cells (ATP luminescence) [1]: 0.109 nM
- EC50 (read off the curve) [2]: ~0.4 nM
- EC50 [3]: 0.554 nM
- IC50 (read off the curve) [4]: ~0.4 nM
- IC50 [5]: 0.259 nM
- EC50 of recovery of IL-2 production, Raji-HVEM/Jurkat-BTLA coculture [6]: 0.554 nM
